# Assay results: patent US20230070731A1, “COMPOSITIONS FOR SMALL MOLECULE CONTROL OF PRECISE BASE EDITING OF TARGET NUCLEIC ACIDS AND METHODS OF USE THEREOF” (THE TRUSTEES OF THE UNIVERSITY OF PENNSYLVANIA, priority 2020, published 2023)
# System: BL21(DE3) E. coli
# Experiment: Bacterial DNA deaminase rifampicin mutagenesis assay (acquired rifampin resistance)
# Format: cell-based
# Conditions: expression in E. coli
# Experimental: In initial studies, a foreign protein/domain was inserted into an enhanced hyperactive version of AID described in U.S. patent application Ser. No. 16/025,261 (See for example, SEQ ID NO: 20 of the '261 patent application) which is incorporated herein by reference as though set forth in full. This mutant version of the human DNA deaminase AID, involved in antibody maturation was assessed and the loop regions which appeared to be tolerant to insertion of control elements (e.g., Green Fluorescent Protein GFP fragments) were identified as described hereinbelow. Several candidate locations for insertion were identified. We used an E. coli-based rifampin mutagenesis assay to evaluate activity (See Kohli et al., J Biol Chem. (2009) 284:pages 22898-904). In this assay we measure the activity level of a mutator by measuring how many E. coli can be turned resistant to the antibiotic rifampin when the enzyme is turned on.
# The mutation frequency of various DNA deaminases, including insertion constructs, were determined using a modified version of previously reported rifampin mutagenesis assay (Kohli, JBC 2009). […] The mutation frequencies were then calculated by the ratio of rifampicin resistant colonies to total population. […]
molecule,measurement,value
"AID*: hyperactive AID variant (K10E, F42E, T82I, D118A, R119G, K120R, A121R, H130A, R131E, F141Y, F145E, E156G) with N-terminal MBP tag (protein, UniProt Q9GZX7 1-198, looked up, variant K10E F42E T82I D118A R119G K120R A121R H130A R131E F141Y F145E E156G, N-terminal MBP tag) Single-stranded DNA cytosine …: MDSLLMNRREFLYQFKNVRWAKGRRETYLCYVVKRRDSATSESLDFGYLRNKNGCHVELLFLRYISDWDLDPGRCYRVTWFISWSPCYDCARHVADFLRGNPNLSLRIFTARLYFCEAGRREPEGLRRLAEAGVQIAIMTYKDYEYCWNTFVENHGRTFKAWEGLHENSVRLSRQLRRILLPLYEVDDLRDAFRTLGL",Rif^R increase relative to catalytically inactive mutant AID(E58A),265 fold
